Source: PMC11417369, “DNA sequence and chromatin differentiate sequence-specific transcription factor binding in the human malaria parasite Plasmodium falciparum”
Where a chain is given by its changes, count along the chain named.

B1: GTGCAC_site10197 (dsDNA)
DNA 1: TCCATATGCAAACTGGTGCACAAGTAGCTTTTATAT
DNA 2: ATATAAAAGCTACTTGTGCACCAGTTTGCATATGGA
B2: GTGCAC_site10082 (dsDNA)
DNA 1: ATAATAACTTGTAAGGTGCATTTTATGTTTTCTTAA
DNA 2: TTAAGAAAACATAAAATGCACCTTACAAGTTATTAT
B3: GTGCAC_site10141 (dsDNA)
DNA 1: ACCCATTTTAATTTAGTGCACATTTTACCTTTATAC
DNA 2: GTATAAAGGTAAAATGTGCACTAAATTAAAATGGGT
B4: GTGCAC_site10713 (dsDNA)
DNA 1: TTTTTTTTTCAAGAGGTGCGTGTATTTTAACAAAAA
DNA 2: TTTTTGTTAAAATACACGCACCTCTTGAAAAAAAAA
B5: GTGCAC_site10688 (dsDNA)
DNA 1: AGTGACACCAAAGGGGTGCAATGAAATTAAAAATAT
DNA 2: ATATTTTTAATTTCATTGCACCCCTTTGGTGTCACT
B6: GTGCAC_site10397 (dsDNA)
DNA 1: ATATATAATAAACAGGTGCATTGTTTTATTTTGTAT
DNA 2: ATACAAAATAAAACAATGCACCTGTTTATTATATAT
B7: GTGCAC_site10403 (dsDNA)
DNA 1: CTGTAAAATGTGATGGTGCATATTAATTTAGTTGTA
DNA 2: TACAACTAAATTAATATGCACCATCACATTTTACAG
B8: GTGCAC_site10759 (dsDNA)
DNA 1: ATTAAATTTCCTTGAGTGCACATTTTGTTAAAATAT
DNA 2: ATATTTTAACAAAATGTGCACTCAAGGAAATTTAAT
B9: GTGCAC_site9511 (dsDNA)
DNA 1: TTTATATTTATGTAGGTGCATTTGTTTACAACATAT
DNA 2: ATATGTTGTAAACAAATGCACCTACATAAATATAAA
B10: GTGCAC_site10388 (dsDNA)
DNA 1: ATTATATTTATGTTGGTGCATTATACATGAAATTTA
DNA 2: TAAATTTCATGTATAATGCACCAACATAAATATAAT
B11: GTGCAC_site10429 (dsDNA)
DNA 1: TATAAGTGCTCAACGGTGCATTTATAGAAGTTAAAC
DNA 2: GTTTAACTTCTATAAATGCACCGTTGAGCACTTATA
B12: GTGCAC_site10385 (dsDNA)
DNA 1: GTGGTTGTAATGGTGGTGCATATTGTATATTATGTT
DNA 2: AACATAATATACAATATGCACCACCATTACAACCAC
B13: GTGCAC_site10448 (dsDNA)
DNA 1: TATTAATTTAAATGGGTGCAAAACCTATATAAATAT
DNA 2: ATATTTATATAGGTTTTGCACCCATTTAAATTAATA
B14: GTGCAC_site10066 (dsDNA)
DNA 1: TAAACATATAGAGGGGTGCAAAGAATTGTAAAATTT
DNA 2: AAATTTTACAATTCTTTGCACCCCTCTATATGTTTA
B15: GTGCAC_site9937 (dsDNA)
DNA 1: TTTCACATATATATGGTGCATATTTTATGTGTAAAT
DNA 2: ATTTACACATAAAATATGCACCATATATATGTGAAA
B16: GTGCAC_site10559 (dsDNA)
DNA 1: TAAATATTTTTATGGGTGCGTTCTTTAGCGCAATTT
DNA 2: AAATTGCGCTAAAGAACGCACCCATAAAAATATTTA
B17: GTGCAC_site9532 (dsDNA)
DNA 1: ATATATATATTAAAGGTGCACAAATAAATATATACA
DNA 2: TGTATATATTTATTTGTGCACCTTTAATATATATAT
B18: GTGCAC_site9862 (dsDNA)
DNA 1: ACACATACACATTAGGTGCACATAATTCAATATTAC
DNA 2: GTAATATTGAATTATGTGCACCTAATGTGTATGTGT
B19: GTGCAC_site10740 (dsDNA)
DNA 1: AAAAATTAACAAAAGGTGCAATTTATTTATTAACGG
DNA 2: CCGTTAATAAATAAATTGCACCTTTTGTTAATTTTT
B20: GTGCAC_site10547 (dsDNA)
DNA 1: CGTTGGTATTAAAAGGTGCAATGAAATAATATATTA
DNA 2: TAATATATTATTTCATTGCACCTTTTAATACCAACG
B21: GTGCAC_site9760 (dsDNA)
DNA 1: ATAATTATTCTTATGGTGCACTGAATATACATGTTG
DNA 2: CAACATGTATATTCAGTGCACCATAAGAATAATTAT
B22: GTGCAC_site10454 (dsDNA)
DNA 1: TTTTTAATATATTAGGTGCACAATAATACACTTTAT
DNA 2: ATAAAGTGTATTATTGTGCACCTAATATATTAAAAA
B23: GTGCAC_site10328 (dsDNA)
DNA 1: AAATTCTGCATCGAGGTGCGCCATAAAAATTGTGGT
DNA 2: ACCACAATTTTTATGGCGCACCTCGATGCAGAATTT
B24: GTGCAC_site10274 (dsDNA)
DNA 1: CAACCTTTTTTGTTGGTGCATAATTTTTTTTTCTTT
DNA 2: AAAGAAAAAAAAATTATGCACCAACAAAAAAGGTTG
B25: GTGCAC_site10377 (dsDNA)
DNA 1: GAATAAATATTAAATGTGCACTTGAATAGATGTAAA
DNA 2: TTTACATCTATTCAAGTGCACATTTAATATTTATTC
B26: GTGCAC_site10569 (dsDNA)
DNA 1: TACTATTATAAATATGTGCACTTCAATAATATACTA
DNA 2: TAGTATATTATTGAAGTGCACATATTTATAATAGTA
B27: GTGCAC_site10187 (dsDNA)
DNA 1: TTAAAAAATAACAAGGTGCAAATAGGTTTATAAAAT
DNA 2: ATTTTATAAACCTATTTGCACCTTGTTATTTTTTAA
B28: GTGCAC_site10505 (dsDNA)
DNA 1: ATTATTACTTTTTGAGTGCACATACACACAGACATA
DNA 2: TATGTCTGTGTGTATGTGCACTCAAAAAGTAATAAT
B29: GTGCAC_site10039 (dsDNA)
DNA 1: CAGTAGTTTTTATGGGTGCAAAACATATATATAACA
DNA 2: TGTTATATATATGTTTTGCACCCATAAAAACTACTG
B30: GTGCAC_site9720 (dsDNA)
DNA 1: TATATTAAAAAAGAGGTGCATTCGTAAGAGGTTAAA
DNA 2: TTTAACCTCTTACGAATGCACCTCTTTTTTAATATA
B31: GTGCAC_site9557 (dsDNA)
DNA 1: TTTTTATGGACTATGGTGCATTATATATAAATGAAA
DNA 2: TTTCATTTATATATAATGCACCATAGTCCATAAAAA
B32: GTGCAC_site10285 (dsDNA)
DNA 1: CATAAATAAGCTTTAGTGCATTATATTTAAATTTTT
DNA 2: AAAAATTTAAATATAATGCACTAAAGCTTATTTATG
B33: GTGCAC_site9729 (dsDNA)
DNA 1: GAACAAATTAAATAGGTGCATTAACATGTTCTATTT
DNA 2: AAATAGAACATGTTAATGCACCTATTTAATTTGTTC
B34: GTGCAC_site9795 (dsDNA)
DNA 1: B10 DNA 1 with T3C, A25G, A30G, A32T
DNA 2: B10 DNA 2 with T5A, T7C, T12C, A34G
B35: GTGCAC_site10002 (dsDNA)
DNA 1: TATAAGGCAATAATAGTGCACTAAGATATATAATGA
DNA 2: TCATTATATATCTTAGTGCACTATTATTGCCTTATA
B36: GTGCAC_site10253 (dsDNA)
DNA 1: TTTTTTTTTTTGATGGTGCAATATATTAAATAGAAA
DNA 2: TTTCTATTTAATATATTGCACCATCAAAAAAAAAAA
B37: GTGCAC_site9835 (dsDNA)
DNA 1: ATTTAAAAGTTGGTAGTGCATTAAAAATAACAAAAA
DNA 2: TTTTTGTTATTTTTAATGCACTACCAACTTTTAAAT
B38: GTGCAC_site9914 (dsDNA)
DNA 1: TGGCTTTCCCTGCCGGTGCATTAACATTTTTTACAT
DNA 2: ATGTAAAAAATGTTAATGCACCGGCAGGGAAAGCCA
B39: GTGCAC_site9418 (dsDNA)
DNA 1: ATGATATATTTAATAGTGCACTAATTAAAATTATTA
DNA 2: TAATAATTTTAATTAGTGCACTATTAAATATATCAT
B40: GTGCAC_site10275 (dsDNA)
DNA 1: AATATTCATATGCAGGTGCATTAATTTTTATTAATT
DNA 2: AATTAATAAAAATTAATGCACCTGCATATGAATATT
B41: GTGCAC_site10146 (dsDNA)
DNA 1: GAGGTACATTAATTAGTGCATTAAAATTTTTATCCT
DNA 2: AGGATAAAAATTTTAATGCACTAATTAATGTACCTC
B42: GTGCAC_site10014 (dsDNA)
DNA 1: TTTACCTCTTCAATGGTGCAATAACTCAAAAATTTG
DNA 2: CAAATTTTTGAGTTATTGCACCATTGAAGAGGTAAA
B43: GTGCAC_site10254 (dsDNA)
DNA 1: GTATATAAATAAATAGTGCATTATTAAAAATAATGT
DNA 2: ACATTATTTTTAATAATGCACTATTTATTTATATAC

These binders were tested against T1, SIP2 D1 (Plasmodium falciparum, UniProt C6KSN9 177-235) (assay: gcPBM; about 25 ug protein; PBS, 1% milk, 0.2 mg/ml BSA, salmon testes DNA, 0.03% Triton X-100). Conditions: tags: N-terminal GST (pGEX-4T-1), kept; label: surface-attached array probe.
T1 sequence: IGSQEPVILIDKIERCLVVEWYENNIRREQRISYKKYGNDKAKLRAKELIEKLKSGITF
B1 was tested, and the binding signal was 11 ln median PBM intensity, better of two orientations. For B2, the binding signal was 10.8 ln median PBM intensity, better of two orientations. B3 was tested, and the binding signal was 10.5 ln median PBM intensity, better of two orientations. B4 was tested, and the binding signal was 10.3 ln median PBM intensity, better of two orientations. For B5, the binding signal was 10.6 ln median PBM intensity, better of two orientations. B6 was tested, and the binding signal was 10.5 ln median PBM intensity, better of two orientations. With B7 the binding signal was 10.8 ln median PBM intensity, better of two orientations. With B8 the binding signal was 10.7 ln median PBM intensity, better of two orientations. With B9 the binding signal was 10.3 ln median PBM intensity, better of two orientations. In the case of B10, the binding signal is reported as 10.2 ln median PBM intensity, better of two orientations. For B11, the binding signal was 10.8 ln median PBM intensity, better of two orientations. B12 was tested, and the binding signal was 10.7 ln median PBM intensity, better of two orientations. With B13 the binding signal was 11.1 ln median PBM intensity, better of two orientations. In the case of B14, the binding signal is reported as 10.8 ln median PBM intensity, better of two orientations. In the case of B15, the binding signal is reported as 10.5 ln median PBM intensity, better of two orientations. In the case of B16, the binding signal is reported as 10.4 ln median PBM intensity, better of two orientations. With B17 the binding signal was 11.3 ln median PBM intensity, better of two orientations. With B18 the binding signal was 11.3 ln median PBM intensity, better of two orientations. For B19, the binding signal was 10.9 ln median PBM intensity, better of two orientations. In the case of B20, the binding signal is reported as 10.7 ln median PBM intensity, better of two orientations. B21 was tested, and the binding signal was 11 ln median PBM intensity, better of two orientations. For B22, the binding signal was 11.3 ln median PBM intensity, better of two orientations. With B23 the binding signal was 10.9 ln median PBM intensity, better of two orientations. B24 was tested, and the binding signal was 10.2 ln median PBM intensity, better of two orientations. B25 was tested, and the binding signal was 10.3 ln median PBM intensity, better of two orientations. B26 was tested, and the binding signal was 10.4 ln median PBM intensity, better of two orientations. With B27 the binding signal was 10.3 ln median PBM intensity, better of two orientations. For B28, the binding signal was 10.6 ln median PBM intensity, better of two orientations. B29 was tested, and the binding signal was 11.3 ln median PBM intensity, better of two orientations. B30 was tested, and the binding signal was 10.6 ln median PBM intensity, better of two orientations.

Each binder was assayed against AP2-I D3 (Plasmodium falciparum, UniProt Q8IJW6 910-1027) in the same assay as above. Conditions: tags: N-terminal GST (pGEX-4T-1), kept; label: surface-attached array probe.
For B31, the binding signal was 12.3 ln median PBM intensity, better of two orientations. In the case of B32, the binding signal is reported as 12.2 ln median PBM intensity, better of two orientations. In the case of B33, the binding signal is reported as 12.2 ln median PBM intensity, better of two orientations. For B34, the binding signal was 12.2 ln median PBM intensity, better of two orientations. B35 was tested, and the binding signal was 12.3 ln median PBM intensity, better of two orientations. With B36 the binding signal was 12.2 ln median PBM intensity, better of two orientations. B37 was tested, and the binding signal was 12.2 ln median PBM intensity, better of two orientations. In the case of B38, the binding signal is reported as 12.3 ln median PBM intensity, better of two orientations. In the case of B39, the binding signal is reported as 12.4 ln median PBM intensity, better of two orientations. With B40 the binding signal was 12.2 ln median PBM intensity, better of two orientations. For B41, the binding signal was 12.2 ln median PBM intensity, better of two orientations. For B42, the binding signal was 12.3 ln median PBM intensity, better of two orientations. In the case of B43, the binding signal is reported as 12.2 ln median PBM intensity, better of two orientations.
